The text below walks through data of PMC12409433.

Experiment [1] has as its target Klebsiella pneumoniae N-acetylglucosamine-6-phosphate deacetylase (NagA) (Klebsiella pneumoniae). The experiment in a line: SEC-MALS; Superdex 200 Increase 10/300 GL, 0.5 ml/min, 20°C, DAWN-Treos detector; BSA for calibration. (In general: In gel filtration, larger molecules generally elute earlier.)
For experiment [2] the target is unchanged. The experiment is described as follows: SEC; Superdex 200 Increase 10/300 GL, 20 mM Tris-HCl pH 8.0, 150 mM NaCl; apparent mass by calibration with molecular weight standards.

The stoichiometry N is a count of units in the complex or per binding partner. For “Klebsiella pneumoniae N-acetylglucosamine-6-phosphate deacetylase (NagA) (enzyme)”, the stoichiometry N in experiment [1] and in experiment [2] was 4 throughout.
